# Results as given in US9719113B2 (priority 2014, dated 2017).
# B1: nahG^opt: salicylate 1-monoxygenase (SMO) from P. putida DOT-T1E, encoded by codon-optimized gene nahG^opt (protein, listed as Escherichia coli)
# chain: MQNSTSALNVSIIGGGIAGVALALDLCRHAHLNVQLFEAAPAFGEVGAGVSFGANAVRAIAGLGIAEPYGKIADSNPAPWQDIWFEWRNGRDAKYLGCSVAEGVGQSSVHRADFLDALASQLPDGIAQFGKRAQRVEQDGEQVRVTFTDGSEHRCDLLIGADGIKSSIRDHVLQGLNQPLASPRFSGTCAYRGLIDSQQLREAYRARGVDEHLIDVPQMYLGLDGHILTFPVKQGRLINVVAFISDRSQPNPVWPSDTPWVRNATQAEMLAAFEGWDDAAQVLLECIPTPSLWALHDLAELPGYVHGRVGLIGDAAHAMLPHQGAGAGQGLEDAWLLARLLEDPKVLDKRPQAVLDAYDAVRRPRACRVQRTSFEAGELYEFRDPAVLADEERLGKVLAERFDWLWNHDMQEDLLQARELLGLRAQAA
# Key:
# QH4 strain = settings: SA added to cell cultures at 0-1000 mg/L; QH4 cells
# Source text: All data points are reported as mean±s.d. from three independent experiments. […] All data points are reported as mean±s.d. from two independent experiments.
# [1] = In vitro SMO enzyme assay; type: biochemical, P. putida DOT-T1E; settings: purified His-tagged enzyme 0.97 nM
# Protocol: (A) Kinetic parameters of the SMO. The Km and Vmax values were estimated with OriginPro8 through non-linear regression of the Michaelis-Menten equation. The protein concentration [E] of the SMO in the reaction systems was 0.97 nM. The kcat value was calculated according to the formula kcat=Vmax/[E]. […] (B) Conversion of SA to MA using the wild type E. coli strain carrying pZE-NC. […] Error bars are defined as s.d.
# To express and purify the enzyme, E. coli BL21 Star (DE3) was transformed with the expression plasmid pET-NahG. A fresh transformant was inoculated in 3 ml LB medium containing 100 μg/ml of ampicillin and grown aerobically at 37° C. Overnight cultures were inoculated into 50 ml fresh LB medium and left to grow at 37° C. till OD600 reached 0.6 and then induced at 30° C. with 0.5 mM IPTG for another 3 h. Cells were then harvested and lysed by French Press. The recombinant protein with an N-terminal multi-histidine tag was purified using His-Spin protein miniprep kit (ZYMO […]). The enzyme concentration was measured using BCA kit (Pierce Chemicals). The standard enzyme assay was performed by making an assay mixture containing 500 μM NADH, 10 μM FAD, 0.97 nM purified enzyme, and SA as the substrate. The final volume was adjusted to 1 ml with Kpi buffer (20 mM, pH=7.0). […] The reaction rates were calculated by measuring the formation of catechol via HPLC. […]
# [2] = Screening SMOs in vivo (conversion of SA to catechol by whole cells); type: cell-based; settings: E. coli BW25113 carrying pZE12-luc expression vector, 2 mM SA, 37° C., catechol formation rate
# Protocol: To evaluate the activity of enzymes converting SA to catechol, E. coli BW25113 was transformed with the expression vectors pZE-ppbenABCD, pZE-paantABC, pZE-pfantABC and pZE-NahG, separately. The resultant transformants were inoculated in 3 ml LB liquid medium containing 100 μg/ml of ampicillin and grown aerobically at 37° C. The overnight cultures were inoculated into 20 ml fresh LB medium and left to grow at 37° C. till OD600 reached 0.6 and then induced with 0.25 mM of IPTG at 37° C. for additional 3 h. Then the cells were harvested, and re-suspended in M9Y medium (OD600=2.1-2.7). SA was added into the cell suspension to a final concentration of 2 mM. The flasks were incubated with shaking at 37° C. for 10 min for the SMO encoded by nahG^opt and 1 h for ppBenABCD, paAntABC, and pfAntABC. Samples were taken by removing cell pellets and the product (catechol) concentrations were measured with HPLC. The in vivo activity was expressed as μM/min/OD.
# Following the reconstitution and optimization of an SA biosynthetic pathway, our subsequent effort was focused on constructing the SA degradation pathway. SMO catalyzes the first enzymatic step of SA degradation, and thus it is of great importance to have an efficient SMO available for the pathway assembly. […] A putative SMO (encoded by nahG) was identified from the genome of P. putida DOT-T1E. […]
Molecule,SA concentration that completely inhibited the cell proliferation (QH4 strain),"Km ([1]; SA 0 to 100 μM, 500 μM NADH, 10 μM FAD, pH 7.0, 37° C.)","kcat ([1]; substrate SA, kcat=Vmax/[E])",In vivo activity [2],In vivo activity ([2]; listed as SMO encoded by nahG^opt)
"O=C(O)c1ccccc1O [SA, salicylic acid]",1000 mg/L,–,–,–,–
B1,–,4.37 µM,96.56 s⁻¹,54.78 ± 1.65 μM/min/OD,54.78 μM/min/OD
